Reference: PMC9866218 (2023)

Legend:
KV1.2 [1] = molecular target: T1, KV1.2 (Homo sapiens, UniProt P16389); test: whole-cell patch clamp (koff/kon block kinetics)
KV1.2 [2] = molecular target: T1, KV1.2; test: whole-cell patch clamp (Hill fit of concentration-response)
KCa3.1 = KCa3.1 (Homo sapiens, UniProt O15554); test: as above
KCa2.2 = KCa2.2 (Homo sapiens, UniProt Q9H2S1); test: as above
Chain of KCa2.2 (Q9H2S1 whole entry): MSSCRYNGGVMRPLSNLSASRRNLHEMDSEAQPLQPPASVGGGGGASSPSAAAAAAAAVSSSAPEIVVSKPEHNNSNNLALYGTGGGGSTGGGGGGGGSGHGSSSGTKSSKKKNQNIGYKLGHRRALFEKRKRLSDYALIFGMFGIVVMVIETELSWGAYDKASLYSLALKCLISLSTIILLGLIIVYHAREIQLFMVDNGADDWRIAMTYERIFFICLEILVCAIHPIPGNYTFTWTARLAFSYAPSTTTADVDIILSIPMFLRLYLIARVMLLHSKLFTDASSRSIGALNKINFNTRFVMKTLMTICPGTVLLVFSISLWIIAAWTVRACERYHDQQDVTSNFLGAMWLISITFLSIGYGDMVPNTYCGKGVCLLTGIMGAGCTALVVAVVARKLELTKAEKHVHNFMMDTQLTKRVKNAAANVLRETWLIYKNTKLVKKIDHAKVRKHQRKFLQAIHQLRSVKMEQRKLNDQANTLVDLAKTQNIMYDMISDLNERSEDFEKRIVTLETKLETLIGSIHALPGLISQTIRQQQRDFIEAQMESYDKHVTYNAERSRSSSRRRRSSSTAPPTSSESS

T1 sequence (P16389 whole entry): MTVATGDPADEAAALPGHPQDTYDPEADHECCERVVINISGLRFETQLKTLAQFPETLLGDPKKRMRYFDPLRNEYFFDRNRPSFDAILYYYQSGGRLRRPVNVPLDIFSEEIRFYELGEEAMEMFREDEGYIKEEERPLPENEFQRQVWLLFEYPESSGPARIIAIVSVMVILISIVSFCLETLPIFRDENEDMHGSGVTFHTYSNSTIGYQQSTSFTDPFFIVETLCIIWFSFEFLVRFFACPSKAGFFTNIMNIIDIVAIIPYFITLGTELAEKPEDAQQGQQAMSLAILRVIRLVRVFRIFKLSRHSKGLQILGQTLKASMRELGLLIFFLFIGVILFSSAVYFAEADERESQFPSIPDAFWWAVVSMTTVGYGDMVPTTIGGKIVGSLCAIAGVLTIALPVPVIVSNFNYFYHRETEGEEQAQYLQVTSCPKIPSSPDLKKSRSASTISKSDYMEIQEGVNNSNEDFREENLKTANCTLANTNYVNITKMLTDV
Chain of KCa3.1 (O15554 whole entry): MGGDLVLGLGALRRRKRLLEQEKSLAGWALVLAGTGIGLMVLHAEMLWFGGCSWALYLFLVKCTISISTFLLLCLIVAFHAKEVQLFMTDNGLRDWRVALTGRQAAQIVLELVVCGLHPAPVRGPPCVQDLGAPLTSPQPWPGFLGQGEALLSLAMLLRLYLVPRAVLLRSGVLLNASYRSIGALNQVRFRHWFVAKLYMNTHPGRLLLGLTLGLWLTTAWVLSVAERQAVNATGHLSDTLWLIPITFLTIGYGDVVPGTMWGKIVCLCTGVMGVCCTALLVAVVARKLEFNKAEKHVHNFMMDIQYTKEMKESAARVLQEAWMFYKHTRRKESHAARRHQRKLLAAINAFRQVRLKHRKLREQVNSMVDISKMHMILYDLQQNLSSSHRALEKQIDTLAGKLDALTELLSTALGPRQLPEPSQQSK

TFINHKCKSSSECLPACKAAIGRASGKCINSTCKCYY [Cm39 (α-KTx 4.8)]
Kd (KV1.2 [1]): 87.8 nM
Kd (KV1.2 [2]): 65 nM
Kd (KCa3.1): 57.7 nM
Kd (KCa2.2): 502 nM
